Data taken from patent US20250282868A1 (ITEOS BELGIUM, published 2025).
Where a chain is given by its changes, count along the chain named.

T1: cynomolgus TREM2 (cynomolgus, UniProt A0A2K5UY34 49-260)
T1 construct: also called cynoTREM2; cTREM2
T1 sequence: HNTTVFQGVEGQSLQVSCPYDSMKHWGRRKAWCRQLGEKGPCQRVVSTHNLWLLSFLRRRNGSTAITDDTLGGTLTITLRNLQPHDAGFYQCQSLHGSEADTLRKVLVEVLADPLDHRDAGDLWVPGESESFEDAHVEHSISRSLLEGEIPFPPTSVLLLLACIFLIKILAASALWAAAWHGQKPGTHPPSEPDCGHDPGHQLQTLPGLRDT

T2: human TREM2 (human, UniProt Q9NZC2 19-230)
T2 construct: on THP-1 WT cells and M2a-like macrophages (endogenous) and on CHO or HEK293T cells overexpressing human TREM2 with DAP12; also called hTREM2
T2 sequence: T1 sequence with E10A, R60W, F89L, V125F, V157I, P193L, H201Y

T3: mouse TREM2 (mouse, UniProt Q99NH8 19-227)
T3 construct: whole, on cells
T3 sequence (looked up): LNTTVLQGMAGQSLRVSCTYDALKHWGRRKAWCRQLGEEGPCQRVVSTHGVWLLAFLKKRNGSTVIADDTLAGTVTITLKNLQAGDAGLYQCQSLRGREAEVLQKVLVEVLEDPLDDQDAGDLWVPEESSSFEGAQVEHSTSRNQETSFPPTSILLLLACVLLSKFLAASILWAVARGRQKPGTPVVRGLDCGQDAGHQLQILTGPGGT

B1: EOS006166 (antibody, V domains shown)
VH: EVQLVESGGGLVQPGRSLRLSCTASGFTFGDYAMSWFRQAPGKGLEWVGFIGSKAYGGTTEYTASVKGRFTISRDGSKSIAYLQMNSLKTEDTAVYYCARGKRYSYGYWHPAFDVWGQGTMVTVSS
VL: DIQMTQSPSSLSASVGDRVTITCQASQDITNYLNWYQQKPGKAPKLLIYDASNLETGVPSRFSGSGSGTDFTFTISSLQPEDIATYYCQQYDSYLTFGGGTKVEIK
B2: EOS006173 (antibody, V domains shown)
VH: B1 VH with Y104R, S105D
VL: B1 VL with Q90E, S93Q
notes: also called EOS061730
B3: EOS006177 (antibody, V domains shown)
VH: QVQLQESGPGLVKPSGTLSLTCAVSGGSISDSAWWSWVRQPPGKGLEWIGEIYHDADTNYNPSLKSRVTISVDKSKNQFSLKLSSVTAADTAVYYCARDTKYWGGMDVWGQGTTVTVSS
VL: B1 VL with T30S, E55A, D92V, S93E, Y94A, L95P
B4: EOS006174 (antibody, V domains shown)
VH: B1 VH with D31E, A33T, G57A, Y108G, H110V
VL: B1 VL with Q90E, T96A
B5: EOS006164 (antibody, V domains shown)
VH: B1 VH with G30D, A33T, G57S, G58A, G107T, H110T
VL: B1 VL with Q90E, L95I
B6: EOS006170 (antibody, V domains shown)
VH: B3 VH with D31S, A33N, D55S, A56G, D57S, W103Q, G104A
VL: B1 VL with T30S, E55A, D92V, S93V, Y94F, L95P
B7: EOS006180 (antibody, V domains shown)
VH: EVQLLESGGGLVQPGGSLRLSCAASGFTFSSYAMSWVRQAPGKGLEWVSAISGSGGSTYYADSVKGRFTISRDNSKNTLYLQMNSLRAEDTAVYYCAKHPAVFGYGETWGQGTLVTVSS
VL: EIVLTQSPGTLSLSPGERATLSCRASQSVSSSFLAWYQQKPGQAPRLLIYGASSRATGIPDRFSGSGSGTDFTLTISRLEPEDFAVYYCQQYYGLPITFGGGTKVEIK

What was measured:
[1] = target: T1, cynomolgus TREM2; experiment: MFI on CHO cells over-expressing cynoTREM2-DAP12
Experimental: (§1) Cross-reactivity of anti-TREM2 antibodies to cynomolgus TREM2 (cynoTREM2) was assessed using CHO over-expressing cynoTREM2-DAP12 (Table 22). Benchmark antibodies, AB52 and PN-37012, were examined for comparison.

[2] = target: T2, human TREM2; experiment: flow cytometry, M2a-like macrophages
Experimental: (§2) M2a-like macrophages were produced in vitro from monocytes of healthy donors. Briefly, after PBMCs isolation from peripheral blood using Lymphoprep™ gradient, CD14+ cells were purified and seeded in presence of MCSF 50 ng/ml for 6 days. Macrophages were then cultured with IL-13 and IL-4 at a concentration of 20 ng/ml for two additional days and then used for a cell-based binding assay.
(§3) M2a-like macrophages were incubated with anti-TREM2 antibodies (dose-response curve with 11 concentrations from 10 μg/ml to 0.0001 μg/ml) for 30 min at 4° C. After washing, bound antibodies were detected with a secondary anti-human IgG Fc PE-labelled for 30 min at 4° C. Fluorescence intensity was measured by flow cytometry. Equilibrium dissociation constant (kD) was then calculated for each antibody using median MFI normalized over isotype control.

[3] = target: T2, human TREM2; experiment: cell-based or functional assay
[4] = target: T1, cynomolgus TREM2; experiment: MFI on CHO cells over-expressing cynoTREM2-DAP12 vs CHO empty vector
Experimental: as §1

[5] = target: T2, human TREM2; experiment: flow cytometry, THP-1 WT vs THP-1 TREM2 KO cells, 10 ug/ml
Experimental: (§4) In order to test specificity of selected antibodies to TREM2, binding was tested by flow cytometry on THP-1 TREM2 KO (clone, produced using CRISPR technology in house) and on THP-1 WT. Cells were incubated with selected anti-TREM2 antibodies (final concentration of 10 μg/ml) for 30 min at 4° C. After washing, bound antibodies were detected with a secondary anti-human IgG Fc PE-labelled for 30 min at 4° C. Fluorescence intensity was measured by flow cytometry.

[6] = target: T2, human TREM2; experiment: flow cytometry, competition with LDL-Alexafluor-488 on CHO cells overexpressing human TREM2/DAP12
Experimental: Exemplary anti-TREM2 antibodies were tested in order to characterize their ability to enter in competition with TREM2 ligand, LDL, on CHO overexpressing human TREM2/DAP12. Antibodies (dose response curves from 66.65 nM to 0.07 nM) were incubated for 30 min with cells in a soluble fashion, followed by an incubation with LDL coupled with Alexafluor-488 (at 1 μg/mL final) for 30 min. Finally, after 2 washes, cells were acquired on flow cytometer. The median MFI of Alexafluor-488 was used to plot the graphs. Benchmark antibody MOR044746 was used as positive control.

[7] = target: T2, human TREM2; experiment: flow cytometry, THP-1 WT cells, 10 ug/ml
Experimental: as §4

[8] = target: T2, human TREM2; experiment: cell-based or functional assay; remark: listed apart in the source
[9] = target: T2, human TREM2; experiment: flow cytometry, M2a-like macrophages, dose-response
Experimental: as §2, §3

[10] = target: T3, mouse TREM2; experiment: MFI on CT26 cells over-expressing mouse TREM2 and DAP12 vs CT26 empty vector
Experimental: (§5) Cross-reactivity to mouse TREM2 was assessed using CT26 cells over-expressing mouse TREM2 and DAP12 (Table 23). Eight anti-TREM2 antibodies and both benchmark antibodies were considered cross-reactive to mouse TREM2 (MFI higher than isotype control and fold change of CT26-TREM2 over the CT26 Empty Vector higher than 5). The remaining anti-TREM2 antibodies were considered as being low to not cross-reactive (fold change less than 5). EOS006171 was not tested due to clear non-cross-reactivity preliminary data by octet (data not shown).

[11] = target: T3, mouse TREM2; experiment: MFI on CT26 cells over-expressing mouse TREM2 and DAP12
Experimental: as §5

[12] = target: T3, mouse TREM2; experiment: MFI on CT26 cells over-expressing mouse TREM2 and DAP12; column 'Considered cross-reactive'
Experimental: as §5

Row | Binder | Binding to CHO-cTREM2 MFI [1] [MFI] | Fold over isotype [2] [fold] | Fold over isotype control at 66 nM [3] [fold] | MFI Fold change (CHO-cTREM2 over CHO-EV) [4] [fold] | MFI Fold change (THP-1 WT over THP-1 TREM2 KO) [5] [fold] | IC50 [6] [pM] | Fold over isotype control THP1 WT [7] [fold] | Stabilization ratio (Mean of 2 replicates) [8] [ratio] | Kd [9] [pM] | pSYK/TotSYK EC50 (nM) [3] [nM] | MFI Fold change (CT26-TREM2 over CT26-EV) [10] [fold] | Binding to CT26-TREM2 MFI [11] [MFI] | binding result [12]
1 | B1 | 25500 | 5.9 | 1.75 | 602 | 1.8 | 865 | 7.3 | 0.49 | 1210 | – | – | – | –
2 | B2 | 14000 | 8.2 | 1.34 | 329 | 3.3 | 145 | 3.3 | 0.41 | 300 | 1.08 | 11 | 3940 | –
3 | B3 | 19600 | 17.3 | 0.95 | 355 | 6.8 | 195 | 3.3 | 0.44 | 190 | – | 21.4 | 8680 | –
4 | B4 | 15700 | 14.9 | 0.897 | 323 | 5.1 | 300 | 4 | 0.46 | 90 | – | 34.3 | 10100 | –
5 | B5 | 14200 | 12.9 | 1.16 | 277 | 4.3 | 265 | 3.7 | 0.55 | 320 | – | 21.4 | 6540 | –
6 | B6 | 1650 | 1.1 | 1.31 | 42.8 | 3.2 | – | 2.3 | 0.57 | 8200 | – | 1 | 322 | no binding (tested: fold change less than 5)
7 | B7 | – | – | – | – | – | – | – | – | – | – | 1.8 | 1890 | no binding (tested: fold change less than 5)
